# Assay results: doi:10.1101/580449 (bioRxiv, 2019)
# B1: CMP-sialic acid transporter homologue from Zea mays (CSTZM), wildtype-like crystallization construct (natural protein)
# chain: MQWYLVAALLTILTSSQGILTTLSQSNGKYNYDYATIPFLAELFKLSVSGFFLWKECRTSPSVRMTKEWRSVRLYVVPSVIYLIHNNVQFATLTYVDPSTYQIMGNLKIVTTGILFRLVLKRKLSNIQWMAIVLLAVGTTTSQVKGCGDSPCDSLFSAPLEGYLLGILSACLSALAGVYTEYLMKKNNDSLYWQNVQLYTFGVIFNMGWLIYGDFKAGFELGPWWQRLFNGYSITTWMVVFNLGSTGLLVSWLMKYSDNIVKVYSTSMAMLLTMVLSIYLFSVKATIQLFLGIIICIISLQMYFMPVHMLIELPQTLPVTSKENLYFQ
# Biological target: the molecule itself
# Test: crystal structure
protein,measurement,value
B1,binding result,binds
